# Results published in PMC4575112, “Serine 363 of a Hydrophobic Region of Archaeal Ribulose 1,5-Bisphosphate Carboxylase/Oxygenase from Archaeoglobus fulgidus and Thermococcus kodakaraensis Affects CO2/O2 Substrate Specificity and Oxygen Sensitivity” (PLoS ONE, 2015).
# B1: T. kodakaraensis RbcL (Thermococcus kodakarensis KOD1) (protein)
# chain: MVEKFDTIYDYYVDKGYEPSKKRDIIAVFRVTPAEGYTIEQAAGAVAAESSTGTWTTLYPWYEQERWADLSAKAYDFHDMGDGSWIVRIAYPFHAFEEANLPGLLASIAGNIFGMKRVKGLRLEDLYFPEKLIREFDGPAFGIEGVRKMLEIKDRPIYGVVPKPKVGYSPEEFEKLAYDLLSNGADYMKDDENLTSPWYNRFEERAEIMAKIIDKVENETGEKKTWFANITADLLEMEQRLEVLADLGLKHAMVDVVITGWGALRYIRDLAADYGLAIHGHRAMHAAFTRNPYHGISMFVLAKLYRLIGIDQLHVGTAGAGKLEGGKWDVIQNARILRESHYKPDENDVFHLEQKFYSIKAAFPTSSGGLHPGNIQPVIEALGTDIVLQLGGGTLGHPDGPAAGARAVRQAIDAIMQGIPLDEYAKTHKELARALEKWGHVTPV
# notes: recombinant in E. coli BL-21(DE3) from pET11a, untagged, purified anaerobically to homogeneity; reported decamer
# B2: A. fulgidus RbcL2 (Archaeoglobus fulgidus DSM 4304; S363I) (protein)
# chain: MAEFEIYREYVDKSYEPQKDDIVAVFRITPAEGFTIEDAAGAVAAESSTGTWTSLHPWYDEERVKGLSAKAYDFVDLGDGSSIVRIAYPSELFEPHNMPGLLASIAGNVFGMKRVKGLRLEDLQLPKSFLKDFKGPSKGKEGVKKIFGVADRPIVGTVPKPKVGYSAEEVEKLAYELLSGGMDYIKDDENLTSPAYCRFEERAERIMKVIEKVEAETGEKKSWFANITADVREMERRLKLVAELGNPHVMVDVVITGWGALEYIRDLAEDYDLAIHGHRAMHAAFTRNAKHGISMFVLAKLYRIIGIDQLHIGTAGAGKLEGQKWDTVQNARIFSEVEYTPDEGDAFHLSQNFHHIKPAMPVISGGLHPGNLEPVIDALGKEIVIQVGGGVLGHPMGAKAGAKAVRQALDAIISAIPLEEHAKQHPELQAALEKWGRVTPI
# notes: recombinant in E. coli BL-21(DE3) from pET11a, untagged, purified anaerobically to homogeneity; homodimer
# B3: A. fulgidus RbcL2 (Archaeoglobus fulgidus DSM 4304; M295D/S363V) (protein)
# chain: MAEFEIYREYVDKSYEPQKDDIVAVFRITPAEGFTIEDAAGAVAAESSTGTWTSLHPWYDEERVKGLSAKAYDFVDLGDGSSIVRIAYPSELFEPHNMPGLLASIAGNVFGMKRVKGLRLEDLQLPKSFLKDFKGPSKGKEGVKKIFGVADRPIVGTVPKPKVGYSAEEVEKLAYELLSGGMDYIKDDENLTSPAYCRFEERAERIMKVIEKVEAETGEKKSWFANITADVREMERRLKLVAELGNPHVMVDVVITGWGALEYIRDLAEDYDLAIHGHRAMHAAFTRNAKHGISDFVLAKLYRIIGIDQLHIGTAGAGKLEGQKWDTVQNARIFSEVEYTPDEGDAFHLSQNFHHIKPAMPVVSGGLHPGNLEPVIDALGKEIVIQVGGGVLGHPMGAKAGAKAVRQALDAIISAIPLEEHAKQHPELQAALEKWGRVTPI
# notes: as for B2
# B4: A. fulgidus RbcL2 (Archaeoglobus fulgidus DSM 4304; M295D/S363I) (protein)
# chain: MAEFEIYREYVDKSYEPQKDDIVAVFRITPAEGFTIEDAAGAVAAESSTGTWTSLHPWYDEERVKGLSAKAYDFVDLGDGSSIVRIAYPSELFEPHNMPGLLASIAGNVFGMKRVKGLRLEDLQLPKSFLKDFKGPSKGKEGVKKIFGVADRPIVGTVPKPKVGYSAEEVEKLAYELLSGGMDYIKDDENLTSPAYCRFEERAERIMKVIEKVEAETGEKKSWFANITADVREMERRLKLVAELGNPHVMVDVVITGWGALEYIRDLAEDYDLAIHGHRAMHAAFTRNAKHGISDFVLAKLYRIIGIDQLHIGTAGAGKLEGQKWDTVQNARIFSEVEYTPDEGDAFHLSQNFHHIKPAMPVISGGLHPGNLEPVIDALGKEIVIQVGGGVLGHPMGAKAGAKAVRQALDAIISAIPLEEHAKQHPELQAALEKWGRVTPI
# notes: as for B2
# B5: A. fulgidus RbcL2 (Archaeoglobus fulgidus DSM 4304; S363V) (protein)
# chain: MAEFEIYREYVDKSYEPQKDDIVAVFRITPAEGFTIEDAAGAVAAESSTGTWTSLHPWYDEERVKGLSAKAYDFVDLGDGSSIVRIAYPSELFEPHNMPGLLASIAGNVFGMKRVKGLRLEDLQLPKSFLKDFKGPSKGKEGVKKIFGVADRPIVGTVPKPKVGYSAEEVEKLAYELLSGGMDYIKDDENLTSPAYCRFEERAERIMKVIEKVEAETGEKKSWFANITADVREMERRLKLVAELGNPHVMVDVVITGWGALEYIRDLAEDYDLAIHGHRAMHAAFTRNAKHGISMFVLAKLYRIIGIDQLHIGTAGAGKLEGQKWDTVQNARIFSEVEYTPDEGDAFHLSQNFHHIKPAMPVVSGGLHPGNLEPVIDALGKEIVIQVGGGVLGHPMGAKAGAKAVRQALDAIISAIPLEEHAKQHPELQAALEKWGRVTPI
# notes: as for B2
# Columns and labels:
# A. fulgidus RbcL2 [1] = biological target: T1, A. fulgidus RbcL2 (Archaeoglobus fulgidus, UniProt O28635); test: radiometric […]-bicarbonate carboxylase assay; format: biochemical; settings: 83°C, pH 8.3, Mg2+, strictly anaerobic; value previously reported by same laboratory (ref 17), run in parallel; read-out: KRuBP ^a /; cited from earlier work
# T1 construct: gene rbcL; recombinant in E. coli BL-21(DE3) from pET11a, untagged, purified anaerobically to homogeneity; homodimer
# T1 sequence (O28635 1-441): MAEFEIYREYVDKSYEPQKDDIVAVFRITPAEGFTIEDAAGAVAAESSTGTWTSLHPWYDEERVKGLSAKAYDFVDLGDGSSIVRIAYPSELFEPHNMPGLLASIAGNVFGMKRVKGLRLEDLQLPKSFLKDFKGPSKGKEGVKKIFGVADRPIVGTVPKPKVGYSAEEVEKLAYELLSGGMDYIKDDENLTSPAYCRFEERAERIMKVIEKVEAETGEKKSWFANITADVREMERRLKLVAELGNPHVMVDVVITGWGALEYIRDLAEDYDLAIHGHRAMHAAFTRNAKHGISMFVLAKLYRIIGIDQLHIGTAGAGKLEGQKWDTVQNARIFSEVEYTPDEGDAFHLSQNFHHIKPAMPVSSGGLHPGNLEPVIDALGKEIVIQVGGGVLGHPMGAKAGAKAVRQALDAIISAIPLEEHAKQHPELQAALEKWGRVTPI
# A. fulgidus RbcL2 [2] = biological target: T2, A. fulgidus RbcL2 (Archaeoglobus fulgidus, UniProt O28635, M295D); test: radiometric […]-bicarbonate carboxylase assay; format: biochemical; settings: 83°C, pH 8.3, Mg2+, strictly anaerobic; value previously reported by same laboratory (ref 17), run in parallel; read-out: KRuBP ^a /; cited from earlier work
# T2 construct: gene rbcL; recombinant in E. coli BL-21(DE3) from pET11a, untagged, purified anaerobically to homogeneity; homodimer
# T2 sequence (O28635 whole entry M295D): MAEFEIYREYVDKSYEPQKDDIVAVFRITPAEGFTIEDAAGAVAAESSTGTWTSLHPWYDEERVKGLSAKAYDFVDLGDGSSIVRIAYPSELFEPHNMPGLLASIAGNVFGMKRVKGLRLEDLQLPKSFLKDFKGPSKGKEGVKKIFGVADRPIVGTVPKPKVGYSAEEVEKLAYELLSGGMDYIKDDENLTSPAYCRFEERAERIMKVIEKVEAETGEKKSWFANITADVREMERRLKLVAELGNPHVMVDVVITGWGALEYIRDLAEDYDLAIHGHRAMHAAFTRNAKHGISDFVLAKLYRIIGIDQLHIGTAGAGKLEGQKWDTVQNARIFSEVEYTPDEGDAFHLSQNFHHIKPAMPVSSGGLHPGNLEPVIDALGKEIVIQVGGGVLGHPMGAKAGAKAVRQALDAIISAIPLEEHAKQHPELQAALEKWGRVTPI
# purified protein [3] = substrate: O=C(COP(=O)(O)O)[C@H](O)[C@H](O)COP(=O)(O)O; test: purified protein; format: biochemical, Thermococcus kodakarensis; settings: 83°C, pH 8.3, Mg2+, strictly anaerobic
# purified protein [4] = substrate: O=C(COP(=O)(O)O)[C@H](O)[C@H](O)COP(=O)(O)O; test: purified protein; format: biochemical, Archaeoglobus fulgidus; settings: 83°C, pH 8.3, Mg2+, strictly anaerobic
Molecule,Km (purified protein [4]; kcat determined at 4–6 x KRuBP) [µM],kcat (purified protein [4]; kcat determined at 4–6 x KRuBP) [s⁻¹],further results
O=C(COP(=O)(O)O)[C@H](O)[C@H](O)COP(=O)(O)O [RuBP],–,–,Km (A. fulgidus RbcL2 [1]): 20 ± 5 µM; Km (A. fulgidus RbcL2 [2]): 21 ± 3 µM
B1,–,–,Km (purified protein [3]): 14 ± 2 µM; kcat (purified protein [3]): 16.6 s⁻¹
B2,–,–,Km (purified protein [4]): 570 ± 94 µM; kcat (purified protein [4]): 9.5 s⁻¹
B3,1381 ± 88,4.3,–
B4,1646 ± 310,0.7,–
B5,118 ± 6,12.4,–
